The values below come from the supplement of paper PMC10567573.

± gives the standard deviation.

The series is described as follows: protein stability index of a GFP-peptide fusion (GPS, HEK-293T) (PSI 1-6); higher = more stable.
[1] abbreviates: treatment: DMSO, c terminus: a fixed tail appended.
[2] abbreviates: treatment: MLN4924 1 uM, 8 h, c terminus: a fixed tail appended.
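Further: 24-mer peptide tiles fused after GFP, lentivirally expressed, FACS-sorted into six equal bins by GFP/DsRed ratio, decoded by Illumina sequencing, PSI is the read-weighted mean bin number.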

Consider GSGGTRGPPSRGGHMDDGGYSMNF [RBMX], for which the protein stability index reads like this: under setting [1], 3.96 ± 0.24; under setting [2], 4 ± 0.43.

Take GSKARAEGRGPVTPLHLDLTQLHR [PLEKHN1]: the protein stability index by setting is: under setting [1], 3.52 ± 0.061; under setting [2], 3.835 ± 0.001.

In the case of GTAGDSMSYHSGSVFSARDRDPNS [TNXB], the protein stability index by setting is: under setting [1], 4.66 ± 0.18; under setting [2], 4.87 ± 0.14.

As for GTGAVVTSLFMTPLDVVKVRLQSQ [SLC25A39], the protein stability index reads like this: under setting [1], 2.18 ± 0.11; under setting [2], 2.06 ± 0.52.

For GTNTVSFYTLSPNSHFSLNVKTLK [PCDHGC5], the protein stability index is 2.4 ± 0.39 under setting [1] and 2.51 ± 0.21 under setting [2].

As for GVEVIVRISHTLYDLDKIIELNGG [CRY1], the protein stability index came to 3.29 ± 1.2 under setting [1] and 2.57 ± 0.76 under setting [2].

GYGGGFSSSSSFGSGFGGGYGGGL [KRT16]: the protein stability index under setting [1] was found to be 2.47 ± 0.33 and the protein stability index under setting [2] turned out to be 2.57 ± 0.14.

Regarding GYYSEKLEAIQLDGEILFSLLQKV [TBC1D10A], the protein stability index under setting [1] came out at 2.44 ± 0.59 and the protein stability index under setting [2] turned out to be 2.53 ± 0.32.

HAGTVYGGVMYISGGITHDTFQKE [KLHL13]: the protein stability index turned out to be 2.32 ± 0.24 under setting [1] and 2.31 ± 0.22 under setting [2].

Turning to HDDGYMICCDKCSVWQHIDCMGID [KMT2E], the protein stability index under setting [1] turned out to be 2.67 ± 0.29 and the protein stability index under setting [2] came to 2.92 ± 0.42.

With HDSANCELPLLTPCSKAVMSQALK [ETS2], the protein stability index reads like this: under setting [1], 3.34 ± 0.28; under setting [2], 3.45 ± 0.24.

Take HETRLVEVDSGRQIEYEYKLAQAL [LMNB1]: the protein stability index was 3.81 ± 0.044 under setting [1] and 3.96 ± 0.29 under setting [2].

Sequence HEWKSLAPMDAPRYQHGIAVIGNF [KLHL13] yielded a protein stability index under setting [1] of 2.22 ± 0.2 and a protein stability index under setting [2] of 2.17 ± 0.26.

Take HFVDEHGKDQGINIRQKVKELVEF [CLINT1]: the protein stability index is, setting by setting: under setting [1], 3.26 ± 0.23; under setting [2], 3.83 ± 0.28.

As for HGASAPSVSREARQTVPPLTVRLH [PWWP2B], the protein stability index is, setting by setting: under setting [1], 3.76 ± 0.48; under setting [2], 3.73 ± 0.12.

In the case of HGEEEVETFAFQAEIAQLMSLIIN [HSP90AB1], the protein stability index reads like this: under setting [1], 2.58 ± 0.33; under setting [2], 2.95 ± 0.28.

Regarding HIFNTLRSHLIDKGMLTSTTEDE [CDS2], the protein stability index turned out to be 2.71 ± 0.042 (treatment: DMSO, c terminus: native) and 3.23 ± 0.39 (treatment: MLN4924 1 uM, 8 h, c terminus: native).

For HLANHDDLISKSFQGSQGRAYLFN [YPEL3], the protein stability index turned out to be 2.8 ± 0.075 under setting [1] and 3.03 ± 0.24 under setting [2].

In the case of HLIKHRRTHTGEQPYTCSICRRNF [ZNF75A], the protein stability index under setting [1] stood at 2.56 ± 0.28 and the protein stability index under setting [2] is 2.99 ± 0.41.

In the case of HMFTPKLDKMLDPQVWREAATQVF [SLC6A17], the protein stability index was 2.11 ± 0.24 under setting [1] and 2.25 ± 0.47 under setting [2].

HPDDRPKLNKPPETLITTIDSSSS [CYB5A]: the protein stability index is, setting by setting: under setting [1], 4.85 ± 0.49; under setting [2], 5.04 ± 0.32.

In the case of HPNIITLHDIFENKTDVVLILELV [DAPK3], the protein stability index reads like this: under setting [1], 2.54 ± 0.14; under setting [2], 2.34 ± 0.23.

For HTAKCEKLQKEKEELERRFEDEVK [MTUS2], the protein stability index worked out at 5.57 ± 0.26 under setting [1] and 5.6 ± 0.07 under setting [2].

With HTMEEEEDDDWGEDTTEEAQRRRM [EIF5], the protein stability index turned out to be 5.55 ± 0.35 under setting [1] and 5.63 ± 0.28 under setting [2].

Regarding HVPELEMLGRLGYLNHVRAASPQD [MNAT1], the protein stability index is, setting by setting: under setting [1], 3.44 ± 0.2; under setting [2], 3.45 ± 0.45.

Take IAAPHAGANVKPRNSTPPSLARNP [ZC2HC1A]: the protein stability index is, setting by setting: under setting [1], 4.35 ± 0.12; under setting [2], 4.48 ± 0.25.

With IDICHDHFGWYLGWGDCVWLPYLY [DHCR7], the protein stability index by setting is: under setting [1], 2.55 ± 0.12; under setting [2], 3.3 ± 0.27.

Consider IDLSAWCYYCQAYVHHQALLDVKN [HDAC6], for which the protein stability index runs as follows: under setting [1], 2.73 ± 0.38; under setting [2], 3.08 ± 1.2.

On to IGCKKPVSASGKEMDWAQMACHRC [SMG5], for which the protein stability index under setting [1] was determined as 3.04 ± 0.34 and the protein stability index under setting [2] worked out at 3.48 ± 0.28.
